# Reference: US12497460B2, “Anti-MSR1 antibodies and methods of use thereof” (REGENERON PHARMACEUTICALS, INC., priority 2018, dated 2025)
# T1: His9-hMSR1 (human MSR1 extracellular domain) (Homo sapiens, UniProt P21757)
# T1 construct: human MSR1 extracellular domain expressed with a N-terminal nonahistidine tag; His9 (nonahistidine) (N); purchased R&D Systems 2708-MS
# T1 sequence (P21757 77-451 limits assumed): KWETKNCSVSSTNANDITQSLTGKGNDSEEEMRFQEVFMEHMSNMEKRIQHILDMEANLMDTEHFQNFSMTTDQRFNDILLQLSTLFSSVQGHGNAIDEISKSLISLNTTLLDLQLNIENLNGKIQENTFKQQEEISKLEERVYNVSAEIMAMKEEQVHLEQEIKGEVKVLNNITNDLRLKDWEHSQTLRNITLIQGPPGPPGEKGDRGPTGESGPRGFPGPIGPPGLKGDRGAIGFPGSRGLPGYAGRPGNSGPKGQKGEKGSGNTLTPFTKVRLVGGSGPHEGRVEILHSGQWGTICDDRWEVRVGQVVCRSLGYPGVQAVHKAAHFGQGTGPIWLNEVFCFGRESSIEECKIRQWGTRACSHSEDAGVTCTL
# T2: PMA-treated THP-1 cells (endogenously expressed human MSR1) (Homo sapiens, UniProt P21757)
# T2 construct: endogenous in cells; host or cells: THP-1 cells differentiated with PMA
# T2 sequence (P21757 1-451): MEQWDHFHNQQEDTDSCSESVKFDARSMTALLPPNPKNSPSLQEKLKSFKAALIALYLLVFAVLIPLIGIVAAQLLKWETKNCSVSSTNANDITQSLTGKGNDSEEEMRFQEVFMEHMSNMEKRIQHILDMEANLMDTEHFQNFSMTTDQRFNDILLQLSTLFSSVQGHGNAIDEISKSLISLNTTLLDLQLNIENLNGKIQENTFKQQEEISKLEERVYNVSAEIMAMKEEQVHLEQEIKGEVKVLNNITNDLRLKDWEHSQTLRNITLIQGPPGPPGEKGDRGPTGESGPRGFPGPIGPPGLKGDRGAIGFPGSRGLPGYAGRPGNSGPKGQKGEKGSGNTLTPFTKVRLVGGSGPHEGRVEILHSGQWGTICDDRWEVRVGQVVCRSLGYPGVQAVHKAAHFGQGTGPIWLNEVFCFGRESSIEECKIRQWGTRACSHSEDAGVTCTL
# T3: MSR1-mediated Dil-AcLDL uptake in HEK293.Myc.hMSR1 cells (Homo sapiens, UniProt P21757)
# T3 construct: expressed in transfected cells; host or cells: HEK293 (lentiviral transduction, hygromycin selection)
# T3 sequence (P21757 1-451): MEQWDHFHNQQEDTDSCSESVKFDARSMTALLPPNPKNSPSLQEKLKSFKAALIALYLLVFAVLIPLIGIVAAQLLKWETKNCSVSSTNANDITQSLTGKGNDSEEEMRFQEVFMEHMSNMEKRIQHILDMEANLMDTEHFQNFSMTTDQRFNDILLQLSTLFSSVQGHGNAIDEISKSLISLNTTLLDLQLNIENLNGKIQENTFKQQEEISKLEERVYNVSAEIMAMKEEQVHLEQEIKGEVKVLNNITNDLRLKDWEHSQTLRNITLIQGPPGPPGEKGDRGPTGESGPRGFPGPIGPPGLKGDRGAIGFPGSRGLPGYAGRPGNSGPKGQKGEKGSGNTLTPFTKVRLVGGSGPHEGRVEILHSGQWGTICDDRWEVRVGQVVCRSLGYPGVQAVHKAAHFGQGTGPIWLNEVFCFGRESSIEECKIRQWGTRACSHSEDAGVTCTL
# What was measured:
# [1] = test system: HMM-mfMSR1 (monkey MSR1 extracellular domain); assay: OCTET bio-layer interferometry binding kinetics of anti-MSR1 mAbs; conditions: 25° C., analyte HMM-mfMSR1, NB = no binding observed
# Chain of HMM-mfMSR1 (monkey MSR1 extracellular domain) (as listed by the source): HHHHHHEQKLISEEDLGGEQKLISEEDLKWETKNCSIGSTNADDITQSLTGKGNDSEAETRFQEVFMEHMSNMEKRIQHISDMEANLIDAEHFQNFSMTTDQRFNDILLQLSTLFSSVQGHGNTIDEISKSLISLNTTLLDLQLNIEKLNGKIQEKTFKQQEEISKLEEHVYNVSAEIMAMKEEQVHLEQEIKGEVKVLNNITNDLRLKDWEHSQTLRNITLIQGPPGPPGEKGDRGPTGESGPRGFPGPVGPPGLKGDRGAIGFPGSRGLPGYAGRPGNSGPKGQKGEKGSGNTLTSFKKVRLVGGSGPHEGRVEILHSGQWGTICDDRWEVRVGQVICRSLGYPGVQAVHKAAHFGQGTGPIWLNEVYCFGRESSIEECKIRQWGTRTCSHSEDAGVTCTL
# Experimental: (§1) Binding affinities and kinetic constants of human anti-MSR1 antibodies for different MSR1 reagents were determined using a real time, label-free bio-layer interferometry assay on an OCTET® HTX biosensor platform (Pall FortéBio Corp., Menlo Park, CA). The experiment was performed at 25° C. in 10 mM HEPES, 150 mM NaCl, 3 mM EDTA, 0.05% v/v Surfactant Tween-20, and 1 mg/mL BSA, pH7.4 (HBS-EBT) buffer with the plate shaking at the speed of 1000 rpm. Binding studies were performed on human MSR1 extracellular domain expressed with a N-terminal nonahistidine tag (His9-hMSR1; R&D Systems, Cat #2708-MS), monkey MSR1 extracellular domain expressed with a N-terminal myc-myc-hexahistidine tag (HMM-mfMSR1; SEQ ID NO: 418), and mouse MSR1 extracellular domain expressed with a N-terminal nonahistidine tag (His9-mMSR1; R&D Systems, Cat #1797-MS). The anti-MSR1 monoclonal antibodies were captured by dipping either anti-human Fc (AHC) or anti-mouse Fc (AMC) Octet biosensors in wells containing 5 μg/mL or 10 μg/mL of anti-MSR1 monoclonal antibody for 45-90 seconds. The AHC captured anti-MSR1 monoclonal antibodies were then dipped in wells containing 50 nM of His9-mMSR1, while the AMC captured anti-MSR1 monoclonal antibodies were dipped in wells containing different concentrations of His9-hMSR1 or HMM-mfMSR1 (100 nM, 25 nM) or 100 nM His9-mMSR1. The binding of different MSR1 reagents to the captured anti-MSR1 monoclonal antibody was measured for 4 minutes and the dissociation of monoclonal antibody bound MSR1 reagent was monitored for 8-10 minutes in HBS-EBT buffer.
# (§2) The association rate (ka) and dissociation rate (kd) were determined by fitting the real-time binding sensorgrams to a 1:1 binding model with mass transport limitation using Scrubber 2.0c curve-fitting software. Binding dissociation equilibrium constant (KD) and dissociative half-life (t½) were calculated from the kinetic rates as: […]
# (§3) Binding kinetics parameters for His9-hMSR1, HMM-mfMSR1 or His9-mMSR1 binding to different anti-MSR1 monoclonal antibodies of the invention at 25° C. are shown in Tables 8 and 9.
# [2] = biological target: T1, His9-hMSR1 (human MSR1 extracellular domain); assay: as above; conditions: 25° C., analyte His9-hMSR1, NB = no binding observed
# Experimental: as §1, §2, §3
# [3] = biological target: T2, PMA-treated THP-1 cells (endogenously expressed human MSR1); assay: Electrochemiluminescence antibody binding assay on MSR1-expressing cells; format: cell-based
# [4] = test system: parental HEK293 cells; assay: Electrochemiluminescence antibody binding assay, non-specific binding control cells; format: cell-based, human
# [5] = biological target: T3, MSR1-mediated Dil-AcLDL uptake in HEK293.Myc.hMSR1 cells; assay: Ligand uptake assay, Dil-AcLDL; format: cell-based; conditions: 10 μg/mL Dil-AcLDL
# Experimental: A bioassay was generated to assess the ability of the exemplary anti-MSR1 antibodies to regulate the uptake of certain MSR1 ligands.
# Generation of MSR1-expressing cell lines for assay. […] The resulting cell line, referred to here as “HEK293.Myc.hMSR1”, was selected and maintained in DMEM containing 10% FIBS, NEAA, penicillin/streptomycin, L-glutamine, and 100 μg/mL hygromycin.
# Ligand uptake assay. […] After 30 minutes, either oxidized or acetylated low-density lipoprotein (LDL) labeled with 1,1′dioctadecyl-3,3,3′,3′-tetramethylindocarbocyanine perchlorate (referred to as “Dil-OxLDL” or “Dil-AcLDL,” respectively) was added to the cells at a constant concentration of 10 μg/mL. […] Results were analyzed using nonlinear regression (4-parameter logistics) with the Prism 7 program to obtain EC50 and IC50 values. The percentage of inhibition was calculated with the Relative Fluorescent Unit (RFU) values by using the following equation: […]
# In the equation, “RFUBaseline” is the fluorescence value from the cells treated with 10 μg/mL ligand without antibodies, “RFUInhibition” is the minimum fluorescence value with for a particular antibody with 10 μg/mL ligand, and “RFUBackground” is the fluorescence value from cells without any ligand or antibodies.
ka [1] [M⁻¹ s⁻¹],kd [1] [s⁻¹],ka [2] [M⁻¹ s⁻¹],kd [2] [s⁻¹],"Ratio of 11 nM Antibody Binding Signal (RLU) to isotype control, PMA-treated THP-1 [3]",Dil-Acetylated LDL IC50 [5],maximum inhibition of Dil-AcLDL uptake [5],Dil-Acetylated LDL % Inhibition ([5]; maximum inhibition),Molecule,"Ratio of 11 nM Antibody Binding Signal (RLU) to isotype control, HEK293 [4]"
135000,0.00222,300000,0.00021,56,no inhibition,no inhibition,no inhibition,"H2aM21229N: one of ""Twelve anti-MSR1 antibodies""; ""an “H2aM” antibody has a mouse IgG2a Fc"" (antibody, V domains shown) VH: EVQLVESGGGLVKPGGSLRLSCAASGFTFSRYSMNWVRQAPGKGLEWVSSISSSSSYIYYGDTVKGRFTISRDNAKKSLYLQMNSLRAEDTAVYYCVRDRGQLVLYFDYWGQGTLVTVSS VL: DIQMTQSPASLSTSIRDRVTITCRASLSISSFLNWFQQRPGKAPKLLIYVASNLQSGVPSRFSDSGSGTDFTLTISSLQPEDFATYYCQQNYSTPPITFGQGTRLEIK",36
312000,0.000571,360000,0.000527,8,,,,"H2aM25695N: one of ""Twelve anti-MSR1 antibodies""; ""an “H2aM” antibody has a mouse IgG2a Fc"" (antibody, V domains shown) VH: QVQLQESGPGLVKPSETLSLTCTVTGGSISRNYWSWIRQPPGKGLEWIGYIYYSGSINYNPSLKSRVTISVDMSKNQFSLKLNSVTAADTAVYYCARDRWNWKYGMDVWGQGTTVIVSS VL: EIVLTQSPGTLSLSPGERATLSCRASQTVRNSYLAWYHQKPGQAPRLLIYGASSRATGIPDRFSGSGSGTDFTLTISRLEPEDFAVYYCQQYGSSYWTFGQGTKMEIKR",5
